The chains are these.
B3: recombinant decorin core polypeptide (no side chains), vaccinia system (other, UniProt P07585 31-359, looked up, not shown: small tags and cut ends)
chain: DEASGIGPEVPDDRDFEPSLGPVCPFRCQCHLRVVQCSDLGLDKVPKDLPPDTTLLDLQNNKITEIKDGDFKNLKNLHALILVNNKISKVSPGAFTPLVKLERLYLSKNQLKELPEKMPKTLQELRAHENEITKVRKVTFNGLNQMIVIELGTNPLKSSGIENGAFQGMKKLSYIRIADTNITSIPQGLPPSLTELHLDGNKISRVDAASLKGLNNLAKLGLSFNSISAVDNGSLANTPHLRELHLDNNKLTRVPGGLAEHKYIQVVYLHNNNISVVGSSDFCPPGHNTKKASYSGVSLFSNPVQYWEIQPSTFRCVYVRSAIQLGNYK
B4: recombinant decorin proteoglycan (core and side chains), vaccinia system (other, UniProt P07585 31-359, looked up, not shown: small tags and cut ends)
chain: DEASGIGPEVPDDRDFEPSLGPVCPFRCQCHLRVVQCSDLGLDKVPKDLPPDTTLLDLQNNKITEIKDGDFKNLKNLHALILVNNKISKVSPGAFTPLVKLERLYLSKNQLKELPEKMPKTLQELRAHENEITKVRKVTFNGLNQMIVIELGTNPLKSSGIENGAFQGMKKLSYIRIADTNITSIPQGLPPSLTELHLDGNKISRVDAASLKGLNNLAKLGLSFNSISAVDNGSLANTPHLRELHLDNNKLTRVPGGLAEHKYIQVVYLHNNNISVVGSSDFCPPGHNTKKASYSGVSLFSNPVQYWEIQPSTFRCVYVRSAIQLGNYK
modifications: glycosaminoglycan side chain
notes: also called DEC-PG; DECPG

Experiment [1] concerns the target B3. Description: blot overlay.
Experiment [2] has as its target T1, recombinant human biglycan core polypeptide (no side chains), His-tagged, vaccinia system (human, UniProt P21810 38-368).
T1 construct: GAG attachment sites present but not substituted; also called BGN; core biglycan; not shown: N-terminal cassette His6-[Glu-Ser]-factor Xa site-[Leu-Glu]
T1 sequence: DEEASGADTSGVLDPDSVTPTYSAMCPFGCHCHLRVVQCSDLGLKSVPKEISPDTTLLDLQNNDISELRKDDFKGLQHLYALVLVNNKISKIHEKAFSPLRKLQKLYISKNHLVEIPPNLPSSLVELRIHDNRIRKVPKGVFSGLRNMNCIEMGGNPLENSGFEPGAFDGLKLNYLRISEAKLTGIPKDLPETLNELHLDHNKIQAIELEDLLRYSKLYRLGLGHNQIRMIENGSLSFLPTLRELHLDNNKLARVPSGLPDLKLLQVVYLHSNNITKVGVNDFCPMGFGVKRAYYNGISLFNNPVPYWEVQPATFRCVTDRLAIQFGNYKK
The experiment in a line: co-immunoprecipitation in solution with anti-biglycan or anti-poly-His, protein G beads.

For experiment [3], the target named is T1, recombinant human biglycan core …. Description: blot overlay with 35S in vitro translated sarcoglycan.
Experiment [4] has as its target B4. Described as above.
The target of experiment [5] is B3. The description is as above.
Experiment [6] deals with T2, α-sarcoglycan, 35S-methionine-labelled, in vitro translated (human, UniProt Q16586 1-387, limits assumed).
T2 construct: also called alpha-sarcoglycan
T2 sequence (looked up): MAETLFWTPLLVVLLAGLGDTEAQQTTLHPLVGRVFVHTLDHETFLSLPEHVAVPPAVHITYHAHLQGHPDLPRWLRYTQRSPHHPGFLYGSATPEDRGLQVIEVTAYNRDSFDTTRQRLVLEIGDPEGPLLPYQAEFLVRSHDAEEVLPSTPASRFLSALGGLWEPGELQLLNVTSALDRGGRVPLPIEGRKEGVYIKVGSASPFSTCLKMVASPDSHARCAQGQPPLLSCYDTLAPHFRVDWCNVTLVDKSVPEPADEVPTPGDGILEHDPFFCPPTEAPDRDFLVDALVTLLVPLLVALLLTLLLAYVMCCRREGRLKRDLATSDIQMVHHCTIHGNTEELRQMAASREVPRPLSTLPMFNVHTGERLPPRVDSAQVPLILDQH
Described as above.

B1: β-sarcoglycan, 35S-methionine-labelled, in vitro translated (other, human, UniProt Q16585 1-318, looked up)
chain: MAAAAAAAAEQQSSNGPVKKSMREKAVERRSVNKEHNSNFKAGYIPIDEDRLHKTGLRGRKGNLAICVIILLFILAVINLIITLVIWAVIRIGPNGCDSMEFHESGLLRFKQVSDMGVIHPLYKSTVGGRRNENLVITGNNQPIVFQQGTTKLSVENNKTSITSDIGMQFFDPRTQNILFSTDYETHEFHLPSGVKSLNVQKASTERITSNATSDLNIKVDGRAIVRGNEGVFIMGKTIEFHMGGNMELKAENSIILNGSVMVSTTRLPSSSSGDQLGSGDWVRYKLCMCADGTLFKVQVTSQNMGCQISDNPCGNTH
notes: also called beta-sarcoglycan
As for B1, the binding result in experiment [1] and in experiment [2] was “no binding” each time.

B2: γ-sarcoglycan, 35S-methionine-labelled, in vitro translated (other, human, UniProt Q13326 1-291, looked up)
chain: MVREQYTTATEGICIERPENQYVYKIGIYGWRKRCLYLFVLLLLIILVVNLALTIWILKVMWFSPAGMGHLCVTKDGLRLEGESEFLFPLYAKEIHSRVDSSLLLQSTQNVTVNARNSEGEVTGRLKVGPKMVEVQNQQFQINSNDGKPLFTVDEKEVVVGTDKLRVTGPEGALFEHSVETPLVRADPFQDLRLESPTRSLSMDAPRGVHIQAHAGKIEALSQMDILFHSSDGMLVLDAETVCLPKLVQGTWGPSGSSQSLYEICVCPDGKLYLSVAGVSTTCQEHNHICL
notes: also called gamma sarcoglycan
Turning to B2, the figures for the binding result in experiment [3], in experiment [4] and in experiment [5] were “binds”, “no binding” and “no binding”, respectively. B3: the binding result in experiment [6] is “no binding”. For the molecule B4, the binding result in experiment [6] is on record as “no binding”.
